In article PMC3791895 (mBio, 2013):

Target: the molecule itself
Experiment: SEC

B1: Enterococcus faecalis FabI enoyl-ACP reductase (enzyme, UniProt Q820V5 1-250, looked up)
chain: MFLQNKNVVVMGVANKKSIAWGCAKALKDQGANVIYTYQNERMKKQVVKLADENDLLVECDVASDASIQAAFETIKNEVGTIDGLVHAIAFAKKEELSGNVSDITRDGFLLAQDISSYSLLAVTHYAKPLLNPGSGIVTLTYLGSERAIPNYNMMGIAKASLETAVKYLAFELAADKIRVNGISAGAIKTLAVTGVKDYDQLISISNERTPDKTGVTIEEVGNTCAFLVSDLASGVVGDIIYVDKGVHLT
- stoichiometry N: 2
